Laboratory results from PMC9801508 (2022).
Like-named read-outs stand apart in the source and are kept apart here.

B5: BCL11A extended zinc finger domain (exZnF23) (domain or fragment)
chain: PPVKSKSCEFCGKTFKFQSNLVVHRRSHTGEKPYKCNLCDHACTQASKLKRHMKTHMHKSSPMTVKSDDGLSTASSPEPGTSDLVGSASSALKSVVAKFKSENDPNLIPENGD

Tests used:
[1] = target: T1, BCL11A ZnF23 zinc finger domain; experiment: MST
T1 chain: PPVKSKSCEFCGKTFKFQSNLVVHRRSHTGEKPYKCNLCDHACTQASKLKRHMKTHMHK

[2] = target: B5; experiment: MST
[3] = target: B5
[4] = target: B5; experiment: MST
[5] = target: V102D
[6] = target: L81F
[7] = target: W108R
[8] = target: A97V
[9] = target: Q100L

B1: Nanobody wt2D9 (initial hit) (VHH)
VHH: QVQLVESGGGLVQAGGSLRLSCAASGSIFVNNAMGWYRQAPGKERELVAAISASGGSTYYADSVKGRFTISRDNAKNTVYLQMNSLKPEDTAVYYCAADQDVYPYEYWGQGTQVTVSS
Question: With B1 as the binder, how does the Kd [1] read?
Answer: The Kd was 32900 nM.

Question: What about the Kd [2] of the same binder?
Answer: Its Kd is 1260 nM.

B2: Nanobody 2D9_W108L (VHH)
VHH: QVQLVESGGGLVQAGGSLRLSCAASGSIFVNNAMGWYRQAPGKERELVAAISASGGSTYYADSVKGRFTISRDNAKNTVYLQMNSLKPEDTAVYYCAADQDVYPYEYLGQGTQVTVSS
Question: For B2, which Kd [3] is on record?
Answer: The Kd was 23.4 nM.

B3: Nanobody 2D9 (2D9_V102G) (VHH)
VHH: QVQLVESGGGLVQAGGSLRLSCAASGSIFVNNAMGWYRQAPGKERELVAAISASGGSTYYADSVKGRFTISRDNAKNTVYLQMNSLKPEDTAVYYCAADQDGYPYEYWGQGTQVTVSS
Question: Which results are given for B3?
Answer: Kd [3]: 343 nM; Kd [4]: 320 nM

B4: ZF5.3-2D9 (cell-permeant nanobody) (other)
chain: QVQLVESGGGLVQAGGSLRLSCAASGSIFVNNAMGWYRQAPGKERELVAAISASGGSTYYADSVKGRFTISRDNAKNTVYLQMNSLKPEDTAVYYCAADQDGYPYEYWGQGTQVTVSS
Question: B4 was tested. Which Kd [4] did it give?
Answer: The Kd was 674 nM.

Question: How did the Kd [5] turn out when B5 was run?
Answer: Its Kd is 331 nM.

Question: What about the Kd [6] of the same binder?
Answer: Its Kd is 1460 nM.

Question: What about the Kd [7] of the same binder?
Answer: The Kd was 56.5 nM.

Question: What about the Kd [8] of the same binder?
Answer: The Kd was 75.2 nM.

Question: What about the Kd [9] of the same binder?
Answer: The Kd was 224 nM.
